In assay [1] the target is cloned human wild-type GPR10 (370 amino acids) (human) (UniProt P49683). As to the kind of experiment: displacement of 0.05 nM [125I]PrRP from CHO-hGPR10 cell membranes, 2-site competition model, site 1.
For assay [2], the target named is cloned human NH2-terminus truncated (mutant) GPR10 (306 amino acids) (human) (UniProt P49683). As to the kind of experiment: cell-based or functional assay.
The target of assay [3] is cloned human wild-type GPR10 (370 amino acids) (human) (UniProt P49683). The assay can be described thus: cell-based or functional assay.
Assay [4] shares this target. The assay can be described thus: displacement of 0.05 nM [125I]PrRP from CHO-hGPR10 cell membranes, 2-site competition model, site 2.
Assay [5] deals with T1, cloned human wild-type GPR10 (Homo sapiens, UniProt P49683).
T1 construct: For cloning of human wild-type GPR10 ORF, a DNA fragment was amplified from human genomic DNA; expressed in transfected cells
T1 sequence (P49683 1-370): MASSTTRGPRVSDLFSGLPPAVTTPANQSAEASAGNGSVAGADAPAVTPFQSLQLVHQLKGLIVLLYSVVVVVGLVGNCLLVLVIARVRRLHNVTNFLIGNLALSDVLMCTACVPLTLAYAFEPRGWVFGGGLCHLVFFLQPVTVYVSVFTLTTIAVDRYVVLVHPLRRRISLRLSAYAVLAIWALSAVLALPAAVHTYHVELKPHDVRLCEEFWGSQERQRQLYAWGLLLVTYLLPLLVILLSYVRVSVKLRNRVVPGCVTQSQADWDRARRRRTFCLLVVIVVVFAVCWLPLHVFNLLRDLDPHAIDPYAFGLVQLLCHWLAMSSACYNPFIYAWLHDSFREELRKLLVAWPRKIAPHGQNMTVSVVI
The assay can be described thus: [3H]arachidonic acid release from CHO-hGPR10 cells. The class given is cell-based. The protocol: CHO cells stably expressing cloned human wild-type GPR10 (CHO-hGPR10 cells) were generated as described in Examples 2-3. CHO-hGPR10 were cultured in F-12 HAM medium supplemented with 2.0 mM L-glutamine, 10% (v/v) dialyzed fetal bovine serum, 1.0% hypoxanthine-thymidine supplement, and 1.0% G-418 selection agent. All of the cells were maintained at 37° C. in an atmosphere of 5% CO2 and passaged when ˜80% confluent using a non-enzymatic cell dissociation buffer (Sigma-Aldrich Corporation). CHO-hGPR10 cells were harvested when ˜70% confluent for use in [^3H]arachidonic acid release assays, which were performed as follows:
CHO-hGPR10 cells were plated at a density of 150,000 cells/well in 12 well tissue culture plates, rinsed 24 hr later with calcium and magnesium free Hank's Balanced Salt Solution (Gibco-BRL), and left to incubate for 4 hr in F-12 culture medium (1.0 ml/well) containing 100 nCi/ml of [^3H]arachidonic acid. The cells were then rinsed and incubated for 5 min in 1.0 ml/well of Hank's Balanced Salt Solution (Invitrogen Corp. CA) containing 20 mM HEPES buffer (Sigma-Aldrich Corp.) and 0.1% (w/v) fatty acid-free bovine serum albumin (Sigma-Aldrich Corp.). After repeating this rinse and incubation procedure 3 times, 1.0 ml of vehicle, PrRP or Compound X was added to each well and plates were left to incubate for 30 min at 37° C. 400 μl of the extracellular liquid present in each well was mixed with 2.6 ml of liquid scintillation cocktail and counted by liquid scintillation counting (1272 Clinigamma, LKB/Wallach) to calculate the total [^3H] radioactivity present in each well. All of the reactions were performed in triplicate, at concentrations in the 0.01 to 10,000 nM range, to determine the effects of PrRP and Compound X on basal [^3H]arachidonic acid release from CHO-hGPR10 cells. […]

Assay [6] deals with T2, cloned human NH2-terminus truncated GPR10 (Homo sapiens, UniProt P49683, L65M).
T2 construct: expressed in transfected cells
T2 sequence (P49683 65-370 L65M limits assumed): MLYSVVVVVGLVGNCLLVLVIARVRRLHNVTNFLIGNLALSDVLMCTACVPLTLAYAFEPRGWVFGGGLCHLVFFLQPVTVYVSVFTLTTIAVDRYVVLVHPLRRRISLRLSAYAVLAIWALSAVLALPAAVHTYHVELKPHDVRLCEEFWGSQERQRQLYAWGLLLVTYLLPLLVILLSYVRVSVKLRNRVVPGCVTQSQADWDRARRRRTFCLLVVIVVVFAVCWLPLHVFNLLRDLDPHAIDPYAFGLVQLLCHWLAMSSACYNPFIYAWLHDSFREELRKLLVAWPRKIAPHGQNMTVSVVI
The assay can be described thus: [3H]arachidonic acid release from CHO-T-hGPR10 cells. It counts as cell-based. The protocol: CHO cells were generated to stably express a cloned truncated form of the human GPR10, as described in Examples 2-3. These CHO-T-hGPR10 cells, which express a truncation of the first 64 amino acids present in the wild-type cloned human GPR10, were cultured in F-12 HAM medium, supplemented with 2.0 mM L-glutamine, 10% (v/v) dialyzed fetal bovine serum, 1.0% hypoxanthine-thymidine supplement and 1.0% G-418 selection agent. All of the cells were maintained at 37° C. in an atmosphere of 5% CO2 and passaged when ˜80% confluent using a non-enzymatic cell dissociation buffer (Sigma-Aldrich Corporation). CHO-T-hGPR10 cells were harvested when ˜70% confluent for use in [^3H]arachidonic acid release assays carried out as described below.
The effects of PrRP and Compound X on basal [^3H]arachidonic acid release from CHO-T-hGPR10 cells was performed using exactly the same assay procedure described in Example 7. PrRP and Compound X were each tested in triplicate at concentrations in the 0.01 to 10,000 nM range.
The mean radioactive counts (±SEM, N=3) detected in each reaction triplicate were calculated, and binding isotherms were analyzed by non-linear regression, using GraphPad Prism version 3.00 for Windows, to estimate the potency (EC50 with 95% confidence interval) and relative intrinsic activity (Emax as % basal release±SEM) of PrRP and Compound X. The results are shown in FIG. 19. […]

Assay [7] concerns the target T1, cloned human wild-type GPR10. The assay can be described thus: [125I]PrRP competition binding to CHO-hGPR10 cell membranes. Conditions: 2-site competition model, site 2, 0.05 nM [125I]PrRP. The protocol: Next, PrRP and compound X (molecular weight=318.38) were studied in quadruplicate at nanomolar to micromolar concentrations (PrRP at 0.01, 0.1, 0.5, 1, 5, 10, 50 and 100 nM; Compound X at 100, 300, 1000, 3000 and 10,000 nM) to determine their respective displacement of [^125I]PrRP (Amersham Biosciences UK Limited; catalog #IM341, Specific Activity=2000 Ci/mmol) binding to CHO-hGPR10 cell membranes. Membranes (20 μg protein) were incubated with 0.05 nM [^125I]PrRP, Compound X or vehicle, and buffer comprising 20 mM Tris (pH 7.4), 2.0 mM EGTA, 5.0 mM C4H6MgO4, 0.5 mM phenylmethylsulfonyl fluoride, 1.0 μg/ml pepstatin, 1.0 μl/ml protease inhibitor cocktail, and 0.1% (w/v) BSA. All of the reactions were performed in 96-well Basic Flashplates®, terminated by centrifugation (3,000 g×7 min) after a 90 min incubation at room temperature, and radioactive counts associated with membrane-bound [^125I]PrRP were counted in each well using a Microbeta TriLux microscintillation counter. Non-linear regression analysis of the competition binding data was used to calculate inhibition binding constants (IC50 and Ki), which is the concentration of Compound X that occupies half of the CHO-hGPR10 receptors specifically bound by 0.05 nM [^125I]PrRP. […]

For assay [8] the following is noted: rats; cited from earlier work.
For assay [9], the target named is cloned human wild-type GPR10 (370 amino acids) (human) (UniProt P49683). As to the kind of experiment: radioligand saturation binding on CHO-hGPR10 cell membranes, at [125I]PrRP concentrations near the KD.
For assay [10] the target is unchanged. The assay can be described thus: radioligand saturation binding on CHO-hGPR10 cell membranes, 2-site model, site 2.
For assay [11] the target is unchanged. The assay can be described thus: radioligand saturation binding on CHO-hGPR10 cell membranes, 2-site model, site 1.
For assay [12] the target is unchanged. The assay can be described thus: saturation radioligand binding on CHO-hGPR10 cell membranes; non-specific binding determined with 1.0 uM unlabelled PrRP.

The values that follow come from patent US20040216177A1, “Congenic rats containing a mutant GPR10 gene” (OTSUKA PHARMACEUTICAL CO., LTD., priority 2003, published 2004).

Consider “PrRP (prolactin-releasing peptide), unlabelled”, for which, in [1], the IC50 (usually the concentration that inhibits the measured activity by half) stood at 0.0007 nM and the inhibitory constant (Ki) (commonly a dissociation constant, usually derived from enzyme kinetics or from competition with a known ligand) was 0.0004 nM. This substance came in with a [^3H]arachidonic acid release from CHO-T-hGPR10 cells, Emax (as % basal release) in assay [2] of 3.6%. In [3], this substance gave a [^3H]arachidonic acid release from CHO-hGPR10 cells, EC50 of 0.043 nM; a [^3H]arachidonic acid release from CHO-hGPR10 cells, Emax (as % 1.0 nM PrRP) of 75.3%; a [^3H]arachidonic acid release from CHO-hGPR10 cells, Emax (as a % of 1 nM PrRP) of 105%. In assay [4], this substance returned an IC50 of 0.5 nM and a Ki of 0.29 nM.
With prolactin-releasing peptide [PrRP], in assay [5] (1.0 μM PrRP alone (Example 9)), the “Emax, relative intrinsic activity” value was 75.3±6.1%. In addition, in assay [5] (as % of 1 nM PrRP, tested alone), the “Emax, relative intrinsic activity” value is 105.4±6.1%. For the same substance, in [5] (tested alone), a half-maximal response (EC50) required 0.043 nM. Besides, in [6] (1.0 nM PrRP alone, as % basal release), the “Emax, relative intrinsic activity” value was 3.6±4.4%. Besides, the “activity on basal [3H]arachidonic acid release” value in [6] (0.01 to 10,000 nM) was “inactive”. This substance also displayed a Ki in assay [7] of 0.29 nM. Also, the IC50 in assay [7] (read-out: IC50 (2) displacement of [125I]PrRP) stood at 0.5 nM. Also, in [8], the ACTH entry is recorded as “increase”, the body weight result was “reduce”, the food intake result was “reduce” and the plasma oxytocin result was “increase”. Besides, the wakefulness entry in [8] was “promote wakefulness”.
Regarding “[^125I]PrRP (radioiodinated prolactin-releasing peptide)”, the percent of total binding that was specific in assay [9] was more than 80%. In addition, the Kd (commonly the constant that tells how readily two partners part at equilibrium) in assay [10] was determined as 0.072 nM; in [11], 0.07 nM. Moreover, the EC50 (read off the curve) (commonly the midpoint of the concentration-response curve) in [12] amounted to 0.07 nM.
